In series [1] the target is T1, SHR-SCR complex (SHR 59-531 with SCR 275-653) (Arabidopsis thaliana, UniProt Q9SZF7 59-531; Q9M384 275-653).
T1 sequence (looked up) 1: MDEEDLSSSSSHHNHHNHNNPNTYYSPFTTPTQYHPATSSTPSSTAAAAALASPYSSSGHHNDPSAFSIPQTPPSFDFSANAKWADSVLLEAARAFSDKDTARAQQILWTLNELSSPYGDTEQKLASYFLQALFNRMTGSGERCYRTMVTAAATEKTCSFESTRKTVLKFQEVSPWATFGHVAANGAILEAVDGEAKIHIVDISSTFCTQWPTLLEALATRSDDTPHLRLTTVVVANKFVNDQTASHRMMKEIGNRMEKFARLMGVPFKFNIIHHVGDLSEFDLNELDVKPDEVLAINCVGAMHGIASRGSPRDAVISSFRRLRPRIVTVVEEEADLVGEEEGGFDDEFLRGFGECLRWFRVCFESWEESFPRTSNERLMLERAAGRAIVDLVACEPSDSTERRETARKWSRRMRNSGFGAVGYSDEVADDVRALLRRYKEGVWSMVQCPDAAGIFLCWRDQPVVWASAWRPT
T1 sequence (looked up) 2: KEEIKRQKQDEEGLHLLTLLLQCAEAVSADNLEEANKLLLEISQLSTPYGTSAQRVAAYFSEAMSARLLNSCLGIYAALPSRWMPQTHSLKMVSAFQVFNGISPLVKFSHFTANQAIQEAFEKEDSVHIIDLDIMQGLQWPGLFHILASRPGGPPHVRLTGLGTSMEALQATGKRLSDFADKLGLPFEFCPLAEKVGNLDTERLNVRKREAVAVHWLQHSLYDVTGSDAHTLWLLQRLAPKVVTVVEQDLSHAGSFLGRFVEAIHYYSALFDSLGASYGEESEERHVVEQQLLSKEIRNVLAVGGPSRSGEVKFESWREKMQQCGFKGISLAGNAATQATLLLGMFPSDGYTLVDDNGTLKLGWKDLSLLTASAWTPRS
As to the kind of experiment: ITC. On the technique in general: In ITC the heat of successive injections is recorded.

Series [2] concerns the molecule itself. As to the kind of experiment: AUC.

Broadly, the Kd is the equilibrium constant for the complex coming apart. Read a low Kd as a tighter complex. As usually defined, the stoichiometry N is a count of units in the complex or per binding partner.

B1: MGP/IDD3 ZF3-ZF4 (residues 143-221) (domain or fragment, Arabidopsis thaliana, UniProt Q9ZWA6 143-221, looked up)
chain: EKKWKCEKCAKRYAVQSDWKAHSKTCGTREYRCDCGTIFSRRDSFITHRAFCDALAEETARLNAASHLKSFAATAGSNL
With B1, in series [1], the dissociation constant (Kd) stood at 35.5 ± 11.2 nM, the dH was 2.59 ± 0.02 kcal/mol and the “stoichiometry N” value turned out to be 0.81 ± 0.003.

B2: AtSCL3 (natural protein, Arabidopsis, UniProt Q9LPR8 1-482, looked up)
chain: MVAMFQEDNGTSSVASSPLQVFSTMSLNRPTLLASSSPFHCLKDLKPEERGLYLIHLLLTCANHVASGSLQNANAALEQLSHLASPDGDTMQRIAAYFTEALANRILKSWPGLYKALNATQTRTNNVSEEIHVRRLFFEMFPILKVSYLLTNRAILEAMEGEKMVHVIDLDASEPAQWLALLQAFNSRPEGPPHLRITGVHHQKEVLEQMAHRLIEEAEKLDIPFQFNPVVSRLDCLNVEQLRVKTGEALAVSSVLQLHTFLASDDDLMRKNCALRFQNNPSGVDLQRVLMMSHGSAAEARENDMSNNNGYSPSGDSASSLPLPSSGRTDSFLNAIWGLSPKVMVVTEQDSDHNGSTLMERLLESLYTYAALFDCLETKVPRTSQDRIKVEKMLFGEEIKNIISCEGFERRERHEKLEKWSQRIDLAGFGNVPLSYYAMLQARRLLQGCGFDGYRIKEESGCAVICWQDRPLYSVSAWRCRK
In the case of B2, the “stoichiometry N” value in series [2] worked out at 2.

B3: JKD/IDD10 ZF3-ZF4 (residues 155-224) (domain or fragment, Arabidopsis thaliana, UniProt Q700D2 155-224, looked up)
chain: GEKKWKCEKCSKKYAVQSDWKAHAKTCGTREYKCDCGTLFSRKDSFITHRAFCDALTEEGARMSSLSNNN
For B3, in series [1], the dissociation constant (Kd) was found to be 124 ± 81.7 nM, the dH was -1.29 ± 0.03 kcal/mol and the “stoichiometry N” value turned out to be 0.6 ± 0.01.

For the origin of these results see article PMC5639936 (Nature plants, 2017).
